T1: coxsackie adenovirus receptor (CAR), human, on HeLa cells (human, UniProt P78310 20-365)
T1 sequence: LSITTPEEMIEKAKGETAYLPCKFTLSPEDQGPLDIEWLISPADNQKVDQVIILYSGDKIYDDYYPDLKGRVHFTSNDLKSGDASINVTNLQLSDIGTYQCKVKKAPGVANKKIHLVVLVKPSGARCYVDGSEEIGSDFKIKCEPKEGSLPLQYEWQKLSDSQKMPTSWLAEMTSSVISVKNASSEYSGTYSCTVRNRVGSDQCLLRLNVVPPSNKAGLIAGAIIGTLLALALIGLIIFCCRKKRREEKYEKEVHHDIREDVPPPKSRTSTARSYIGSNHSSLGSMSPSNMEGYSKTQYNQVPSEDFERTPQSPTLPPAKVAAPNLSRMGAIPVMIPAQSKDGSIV

B1: wildtype Ad5 fiber protein (other)
chain: MKRARPSEDTFNPVYPYDTETGPPTVPFLTPPFVSPNGFQESPPGVLSLRLSEPLVTSNGMLALKMGNGLSLDEAGNLTSQNVTTVSPPLKKTKSNINLEISAPLTVTSEALTVAAAAPLMVAGNTLTMQSQAPLTVHDSKLSIATQGPLTVSEGKLALQTSGPLTTTDSSTLTITASPPLTTATGSLGIDLKEPIYTQNGKLGLKYGAPLHVTDDLNTLTVATGPGVTINNTSLQTKVTGALGFDSQGNMQLNVAGGLRIDSQNRRLILDVSYPFDAQNQLNLRLGQGPLFINSAHNLDINYNKGLYLFTASNNSKKLEVNLSTAKGLMFDATAIAINAGDGLEFGSPNAPNTNPLKTKIGHGLEFDSNKAMVPKLGTGLSFDSTGAITVGNKNNDKLTLWTTPAPSPNCRLNAEKDAKLTLVLTKCGSQILATVSVLAVKGSLAPISGTVQSAHLIIRFDENGVLLNNSFLDPEYWNFRNGDLTEGTAYTNAVGFMPNLSAYPKSHGKTAKSNIVSQVYLNGDKTKPVTLTITLNGTQETGDTTPSAYSMSFSWDWSGHNYINEIFATSSYTFSYIAQE
B2: KO4+5 mutant Ad5 fiber protein (ΔG509, K510, ΔG538, T539) (other)
chain: MKRARPSEDTFNPVYPYDTETGPPTVPFLTPPFVSPNGFQESPPGVLSLRLSEPLVTSNGMLALKMGNGLSLDEAGNLTSQNVTTVSPPLKKTKSNINLEISAPLTVTSEALTVAAAAPLMVAGNTLTMQSQAPLTVHDSKLSIATQGPLTVSEGKLALQTSGPLTTTDSSTLTITASPPLTTATGSLGIDLKEPIYTQNGKLGLKYGAPLHVTDDLNTLTVATGPGVTINNTSLQTKVTGALGFDSQGNMQLNVAGGLRIDSQNRRLILDVSYPFDAQNQLNLRLGQGPLFINSAHNLDINYNKGLYLFTASNNSKKLEVNLSTAKGLMFDATAIAINAGDGLEFGSPNAPNTNPLKTKIGHGLEFDSNKAMVPKLGTGLSFDSTGAITVGNKNNDKLTLWTTPAPSPNCRLNAEKDAKLTLVLTKCGSQILATVSVLAVKGSLAPISGTVQSAHLIIRFDENGVLLNNSFLDPEYWNFRNGDLTEGTAYTNAVGFMPNLSAYPKSHTAKSNIVSQVYLNGDKTKPVTLTITLNQETGDTTPSAYSMSFSWDWSGHNYINEIFATSSYTFSYIAQE

The molecules below were run against coxsackie adenovirus receptor (CAR), human, on HeLa cells (human) (UniProt P78310) (assay: cell-based or functional assay).
Molecule “KO2a mutant Ad5 fiber protein (ΔV441) (from UniProt P11818 1-581)” has a Mean % wt βgal activity, transduction of Hela cells of 0.6 % wt, a Representative avg βgal activity (RLU/ug protein), transduction of Hela cells at 1000 particles per cell (RLU/ug protein) of 4000 and a decrease in transduction efficiency, Hela cells of over 160 fold. The fold reduction of β-galactosidase activity against wildtype fiber, Hela cells was 167 fold. “KO8 mutant Ad5 fiber protein (N464T) (from UniProt P11818 1-581)” gave a Mean % wt βgal activity, transduction of Hela cells of 92.6 % wt and a Representative avg βgal activity (RLU/ug protein), transduction of Hela cells at 1000 particles per cell (RLU/ug protein) of 470000. “KO2 mutant Ad5 fiber protein (ΔV441, K442) (from UniProt P11818 1-581)” gave a Mean % wt βgal activity, transduction of Hela cells of 0.6 % wt, a Representative avg βgal activity (RLU/ug protein), transduction of Hela cells at 1000 particles per cell (RLU/ug protein) of 3320 and a decrease in transduction efficiency, Hela cells of over 160 fold. The fold reduction of β-galactosidase activity against wildtype fiber, Hela cells was 167 fold. “KO2b mutant Ad5 fiber protein (ΔK442) (from UniProt P11818 1-581)” was tested, and the Mean % wt βgal activity, transduction of Hela cells was 8.3 % wt and the Representative avg βgal activity (RLU/ug protein), transduction of Hela cells at 1000 particles per cell (RLU/ug protein) was 44400. “KO5 mutant Ad5 fiber protein (ΔG538, T539) (from UniProt P11818 1-581)” showed a Mean % wt βgal activity, transduction of Hela cells of 58.3 % wt and a Representative avg βgal activity (RLU/ug protein), transduction of Hela cells at 1000 particles per cell (RLU/ug protein) of 331000. “KO9 mutant Ad5 fiber protein (V466H) (from UniProt P11818 1-581)” gave a Mean % wt βgal activity, transduction of Hela cells of 80.9 % wt and a Representative avg βgal activity (RLU/ug protein), transduction of Hela cells at 1000 particles per cell (RLU/ug protein) of 391000. “KO4 mutant Ad5 fiber protein (ΔG509, K510) (from UniProt P11818 1-581)” gave a Mean % wt βgal activity, transduction of Hela cells of 38.2 % wt and a Representative avg βgal activity (RLU/ug protein), transduction of Hela cells at 1000 particles per cell (RLU/ug protein) of 213000. Molecule “KO11 mutant Ad5 fiber protein (Δ404-581, knob replaced by GCN4 isoleucine 31 amino acid peptide) (from UniProt P11818 1-403)” has a Mean % wt βgal activity, transduction of Hela cells of 0.8 % wt, a Representative avg βgal activity (RLU/ug protein), transduction of Hela cells at 1000 particles per cell (RLU/ug protein) of 4520 and a fold reduction of β-galactosidase activity against wildtype fiber, Hela cells of 125 fold. Work on “KO1+2 mutant Ad5 fiber protein (S408E, P409A, ΔV441, K442) (from UniProt P11818 1-581)” yielded a Mean % wt βgal activity, transduction of Hela cells of 0.1 % wt, a Representative avg βgal activity (RLU/ug protein), transduction of Hela cells at 1000 particles per cell (RLU/ug protein) of 472 and a fold reduction in fiber-mediated gene transfer, Hela cells of 1000 fold. For the same molecule, the fold reduction of β-galactosidase activity against wildtype fiber, Hela cells was 1000 fold. Work on “KO3 mutant Ad5 fiber protein (R460E) (from UniProt P11818 1-581)” yielded a Mean % wt βgal activity, transduction of Hela cells of 63.3 % wt and a Representative avg βgal activity (RLU/ug protein), transduction of Hela cells at 1000 particles per cell (RLU/ug protein) of 359000. In the case of “KO10 mutant Ad5 fiber protein (P505A) (from UniProt P11818 1-581)”, the Mean % wt βgal activity, transduction of Hela cells is reported as 79.6 % wt and the Representative avg βgal activity (RLU/ug protein), transduction of Hela cells at 1000 particles per cell (RLU/ug protein) is reported as 447000. “KO2c mutant Ad5 fiber protein (V441A, K442A) (from UniProt P11818 1-581)” gave a Mean % wt βgal activity, transduction of Hela cells of 8.5 % wt, a Representative avg βgal activity (RLU/ug protein), transduction of Hela cells at 1000 particles per cell (RLU/ug protein) of 53300 and a fold reduction in fiber-mediated gene transfer, Hela cells of 12 fold. For “KO1 mutant Ad5 fiber protein (S408E, P409A) (from UniProt P11818 1-581)”, the Mean % wt βgal activity, transduction of Hela cells was 1.4 % wt, the Representative avg βgal activity (RLU/ug protein), transduction of Hela cells at 1000 particles per cell (RLU/ug protein) was 7620 and the fold reduction of β-galactosidase activity against wildtype fiber, Hela cells was 70 fold.

Each molecule was assayed against T1, coxsackie adenovirus receptor (CAR), … (assay: cell-based or functional assay).
With B1 the “Mean % wt βgal activity, transduction of Hela cells” value was 100 % wt. B2 was tested, and the “Mean % wt βgal activity, transduction of Hela cells” value was 91.1 % wt.

— patent US20020137213A1 (published 2002)
